Numbering of substitutions follows the chain as printed. Read-outs that look alike come from different tables or passages of the source. Values belong to the binder of their own block, whether it stands above or below them.
Tests used:
[1] = target: T1, human factor IX (human, UniProt P00740 47-461, 12 glutamic acid residues of the GLA domain are post-translationally γ-carboxylated); test: SPR, IgG captured on anti-human IgG Fc, human FIX as analyte
T1 construct: Zymogen used as analyte in SPR, reconstituted at 1 mg/ml; also called FIX; Human FIX (MW ~55 KDa)
T1 sequence (P00740 47-461 limits assumed): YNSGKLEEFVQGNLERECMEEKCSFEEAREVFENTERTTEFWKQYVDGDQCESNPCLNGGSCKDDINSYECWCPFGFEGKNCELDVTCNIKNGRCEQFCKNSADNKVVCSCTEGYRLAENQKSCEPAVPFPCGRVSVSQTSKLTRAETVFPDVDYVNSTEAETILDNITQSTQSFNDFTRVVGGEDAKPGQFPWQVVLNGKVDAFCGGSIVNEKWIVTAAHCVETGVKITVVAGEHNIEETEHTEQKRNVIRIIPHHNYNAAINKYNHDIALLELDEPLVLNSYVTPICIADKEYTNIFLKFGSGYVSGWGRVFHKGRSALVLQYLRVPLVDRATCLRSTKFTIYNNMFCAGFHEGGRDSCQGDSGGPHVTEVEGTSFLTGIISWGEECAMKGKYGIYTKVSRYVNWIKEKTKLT

[2] = target: T1, human factor IX; test: as above; remark: listed apart in the source
Description: (§1) SPR was used to determine the binding affinity (KD) to FIX or FX respectively, the kinetic constants on-rate (kₒₙ) and off-rate (koff). Analyses was performed using a Biacore 8K (GE Healthcare) system.
(§2) Monospecific antibodies (referred as ligand) which had been purified on Protein A were captured onto the anti-human IgG Fc CM4 surface at approximately 2 μg/ml. The ligands were injected for 60 seconds at 10 μl/min in all the active channels of all 8 flow channels. The run was performed at 25° C. using neutral pH HBS-P 1X+CaCl₂ 2.5 mM as running buffer.
(§3) Human FIX (MW ˜55 KDa) or human FX (MW ˜58 KDa) was reconstituted at 1 mg/ml in the running buffer and used as analyte. The analyte was injected in multiple cycle kinetics (MCK) mode at 3 concentrations (1.5 μM, 500 nM and 166.7 nM) with 120 seconds association phase and 200 seconds (for FIX) or 300 seconds (for FX) dissociation phase, at flow rate […] in both active and reference channels. Three injections of 10 mM Glycine pH 1.5 for 60 sec. at 10 μl/min were used for the regeneration phase.

[3] = target: T2, human factor X (human, UniProt P00742 41-179; P00742 183-488); test: SPR, IgG captured on anti-human IgG Fc, human FX as analyte
T2 construct: Zymogen used as analyte in SPR; also called FX; Human FX (MW ~58 KDa)
T2 sequence (P00742 41-179, chain 1 of 2): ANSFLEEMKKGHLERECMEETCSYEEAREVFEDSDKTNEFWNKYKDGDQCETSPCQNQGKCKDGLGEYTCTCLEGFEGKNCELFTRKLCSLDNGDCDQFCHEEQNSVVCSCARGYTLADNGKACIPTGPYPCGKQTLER
T2 sequence (P00742 183-488, chain 2 of 2): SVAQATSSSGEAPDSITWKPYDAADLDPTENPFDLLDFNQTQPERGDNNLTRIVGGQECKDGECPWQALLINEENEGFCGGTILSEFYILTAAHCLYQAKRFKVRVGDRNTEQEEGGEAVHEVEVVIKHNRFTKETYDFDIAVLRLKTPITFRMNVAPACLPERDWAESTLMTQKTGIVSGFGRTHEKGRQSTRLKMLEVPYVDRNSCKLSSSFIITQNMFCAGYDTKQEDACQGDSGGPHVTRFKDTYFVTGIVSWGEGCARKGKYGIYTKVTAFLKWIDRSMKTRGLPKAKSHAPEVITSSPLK

[4] = target: T2, human factor X; test: as above; remark: listed apart in the source
Description: as §1, §2, §3

[5] = target: human FIX and human FX mixed 1:1 (10 µM 10 µM); test: SPR, bispecific captured on anti-human IgG Fc, second injection of a 1:1 mixture of FIX and FX
[6] = target: T1, human factor IX; test: SPR (Biacore 8K), antibody captured on anti-human IgG Fc CM4 chip, human FIX injected alone as analyte (10 µM, 180 s per Example 11) [i), B(i]
Description: (§4) The binding kinetics of the purified bispecific antibody was compared to an isotype control (ISTC). […] FIG. 21A.
(§5) Bispecific antibody (ligand), which had been purified by Protein A capture followed by ion exchange chromatography, was captured on to the anti-human IgG Fc CM4 surface at approximately 2 μg/ml. The ligand was injected at 10 μg/ml for 60 seconds at 10 μl/min in one active channel. The run was performed at 25° C. using neutral pH HBS-P 1×+CaCl₂ 2.5 mM as running buffer.

[7] = target: T2, human factor X; test: SPR, bispecific captured on anti-human IgG Fc, FIX then FX injected
Description: as §4, §5

[8] = target: T2, human factor X; test: cell-based or functional assay

Kd [1]: 180 nM | Kd [2]: 181 nM | koff [2]: 0.0318 s⁻¹ | kon [2]: 175000 M⁻¹ s⁻¹
B1: NINA-0460.0128 (antibody, V domains shown)
VH: EVQLVESGGGFVQPGGSLRLSCAVSGFTFNSYWMSWVRQAPGKGLEWVANINQDGSEKFYVASVKGRFTMSRDNAKKSVYVQMNSLRAEDTAVYYCAREGYSSSQYYGMDVWGQGTTVTVSS
VL: SYVLTQPPSVSVAPGETARITCGGDNIGRKSVYWYQQKSGQAPVLVIYYDSDRPSGIPERFSGSNSGNTATLTISRVEAGDEADYYCQVWDGSSDHWVFGGGTKLTVL

Kd [3]: 100 nM | Kd [4]: 1360 nM | koff [4]: 0.0853 s⁻¹ | kon [4]: 62600 M⁻¹ s⁻¹
B2: TINA-0205.0128 (antibody, V domains shown)
VH: QVQLVQSGAEVKKPGASVKVSCKASRYSFTSYYMHWVRQAPGQGLEWMGIINPKSGDTSYAQKFQGRVTMTRDTSTSTVYMELNSLRSEDTAVYYCARDGYGSSARCLQLWGQGTLVTVSS
VL: B1 VL
notes: Monospecific IgG4PE

Kd [3]: 1400 nM | Kd [4]: 1370 nM | koff [4]: 0.133 s⁻¹ | kon [4]: 96900 M⁻¹ s⁻¹
B3: TINA-0213.0128 (antibody, V domains shown)
VH: B2 VH with P14T, D57T, N84S, A105S
VL: B1 VL
notes: Monospecific IgG4PE

response above that of the anti-FX monospecific antibody (RU) [5]: 25 RU | binding result [6]: binds | binding result [7]: binds
B4: FIXxFX bispecific antibody IXAX-0436.0202.0128 (bispecific antibody, human IgG4 S228P, lambda)
heavy 1: EVQLVESGGGFVQPGGSLRLSCAVSGFTFNSYWMSWVRQAPGKGLEWVANINQDGSEKFYVASVKGRFTMSRDNAKKSVYVQMNSLRAEDTAVYYCAREGYSSISYYGMDVWGQGTTVTVSSASTKGPSVFPLAPCSRSTSESTAALGCLVKDYFPEPVTVSWNSGALTSGVHTFPAVLQSSGLYSLSSVVTVPSSSLGTQTYTCNVDHKPSNTKVDKRVESKYGPPCPPCPAPEFLGGPSVFLFPPKPKDTLMISRTPEVTCVVVDVSQEDPEVQFNWYVDGVEVHNAKTKPREEQYNSTYRVVSVLTVLHQDWLNGKEYKCKVSNKGLPSSIEKTISKAKGQPREPQVYTLPPSQEEMTKNQVSLTCLVKGFYPSDIAVEWESNGQPENNYKTTPPVLDSDGSFFLYSKLTVDKSRWQEGNVFSCSVMHEALHNHYTQESLSLSP
heavy 2: QVQLIQSGAEVQKPGASVKVSCKASRYSFTSYYMHWVRQAPGQGLEWMGIINPKSGSTSYAQKFQGRVTMTRDTSTSTVYMELSSLRSEDTAVYYCARDGYGSSSRCLQLWGQGTLVTVSSASTKGPSVFPLAPCSRSTSESTAALGCLVKDYFPEPVTVSWNSGALTSGVHTFPAVLQSSGLYSLSSVVTVPSSSLGTQTYTCNVDHKPSNTKVDKRVESKYGPPCPPCPAPEFLGGPSVFLFPPKPKDTLMISRTPEVTCVVVDVSQEDPEVQFNWYVDGVEVHNAKTKPREEQYNSTYRVVSVLTVLHQDWLNGKEYKCKVSNKGLPSSIEKTISKAKGQPREPQVYTLPPSQKEMTKNQVSLTCLVKGFYPSDIAVEWESNGQPENNYKTTPPVLDSDGSFFLYSKLTVDKSRWQEGNVFSCSVMHEALHNHYTQKSLSLSP
light: SYVLTQPPSVSVAPGETARITCGGDNIGRKSVYWYQQKSGQAPVLVIYYDSDRPSGIPERFSGSNSGNTATLTISRVEAGDEADYYCQVWDGSSDHWVFGGGTKLTVLGQPKAAPSVTLFPPSSEELQANKATLVCLISDFYPGAVTVAWKADSSPVKAGVETTTPSKQSNNKYAASSYLSLTPEQWKSHKSYSCQVTHEGSTVEKTVAPTECS
notes: also called N436 bispecific antibody

EC50, kinetic FXase assay (FIXa-catalysed activation of FX to FXa, OD405 nm at 600 s) [8]: 3.99 nM
B5: IXAX-1280.0999.0325 (bispecific antibody, human IgG4 S228P, lambda)
heavy 1: B4 heavy 1 with T28R, E57R, S105K
heavy 2: B4 heavy 2 with E10K, Q12K, S28K, S104F, C107L, L108I
light: YVLTQPPSVSVAPGETARITCGGDNIGRKSVYWYQQKSGQAPVLVIYYDSDRPSGIPERFSGSNSGNTATLTISRVEAGDEADYYCQVWDGSSDHWVFGGGTKLTVLGQPKAAPSVTLFPPSSEELQANKATLVCLISDFYPGAVTVAWKADSSPVKAGVETTTPSKQSNNKYAASSYLSLTPEQWKSHKSYSCQVTHEGSTVEKTVAPTECS

Reference: patent publication US20220064327A1 (KYMAB, published 2022)
